Read-outs that look alike come from different tables or passages of the source.
Assays:
[1] = target: T1, PmIleRS2 (Priestia megaterium, UniProt A0A0B6AVD3); test: biochemical
T1 sequence (A0A0B6AVD3 1-1032): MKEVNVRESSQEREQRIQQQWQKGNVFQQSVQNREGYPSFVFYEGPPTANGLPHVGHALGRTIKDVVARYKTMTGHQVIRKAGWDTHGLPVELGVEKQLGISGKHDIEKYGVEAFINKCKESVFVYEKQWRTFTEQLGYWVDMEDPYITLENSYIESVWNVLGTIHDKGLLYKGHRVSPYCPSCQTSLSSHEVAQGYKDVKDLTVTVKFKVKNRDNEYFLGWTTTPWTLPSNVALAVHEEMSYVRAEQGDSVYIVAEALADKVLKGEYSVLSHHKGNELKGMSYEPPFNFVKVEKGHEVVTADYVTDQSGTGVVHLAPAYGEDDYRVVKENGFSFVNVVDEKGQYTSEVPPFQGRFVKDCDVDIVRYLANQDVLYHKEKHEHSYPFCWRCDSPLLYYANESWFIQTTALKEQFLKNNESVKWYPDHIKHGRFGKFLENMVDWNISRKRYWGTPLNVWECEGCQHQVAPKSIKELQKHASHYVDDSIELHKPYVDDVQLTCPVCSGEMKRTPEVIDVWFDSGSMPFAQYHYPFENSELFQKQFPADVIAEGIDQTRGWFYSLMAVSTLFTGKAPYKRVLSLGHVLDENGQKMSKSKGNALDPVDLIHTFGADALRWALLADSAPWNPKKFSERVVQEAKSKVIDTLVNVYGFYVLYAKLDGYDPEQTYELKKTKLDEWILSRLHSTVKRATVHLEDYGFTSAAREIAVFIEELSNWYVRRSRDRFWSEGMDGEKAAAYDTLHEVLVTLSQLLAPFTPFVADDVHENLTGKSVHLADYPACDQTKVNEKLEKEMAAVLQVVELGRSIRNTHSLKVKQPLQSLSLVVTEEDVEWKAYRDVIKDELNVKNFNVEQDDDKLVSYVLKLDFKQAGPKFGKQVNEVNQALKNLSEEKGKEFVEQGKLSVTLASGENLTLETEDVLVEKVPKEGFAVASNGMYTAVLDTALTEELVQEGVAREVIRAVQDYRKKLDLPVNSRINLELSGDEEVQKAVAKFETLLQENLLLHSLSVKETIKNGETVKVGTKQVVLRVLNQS

[2] = target: T2, PmIleRS1 (Priestia megaterium, UniProt A0A0B6A6A8); test: time courses fitted to slow-binding equation, Ki = koff/kon; format: biochemical; conditions: competitive, tight binding, 30 °C
T2 sequence (A0A0B6A6A8 1-921): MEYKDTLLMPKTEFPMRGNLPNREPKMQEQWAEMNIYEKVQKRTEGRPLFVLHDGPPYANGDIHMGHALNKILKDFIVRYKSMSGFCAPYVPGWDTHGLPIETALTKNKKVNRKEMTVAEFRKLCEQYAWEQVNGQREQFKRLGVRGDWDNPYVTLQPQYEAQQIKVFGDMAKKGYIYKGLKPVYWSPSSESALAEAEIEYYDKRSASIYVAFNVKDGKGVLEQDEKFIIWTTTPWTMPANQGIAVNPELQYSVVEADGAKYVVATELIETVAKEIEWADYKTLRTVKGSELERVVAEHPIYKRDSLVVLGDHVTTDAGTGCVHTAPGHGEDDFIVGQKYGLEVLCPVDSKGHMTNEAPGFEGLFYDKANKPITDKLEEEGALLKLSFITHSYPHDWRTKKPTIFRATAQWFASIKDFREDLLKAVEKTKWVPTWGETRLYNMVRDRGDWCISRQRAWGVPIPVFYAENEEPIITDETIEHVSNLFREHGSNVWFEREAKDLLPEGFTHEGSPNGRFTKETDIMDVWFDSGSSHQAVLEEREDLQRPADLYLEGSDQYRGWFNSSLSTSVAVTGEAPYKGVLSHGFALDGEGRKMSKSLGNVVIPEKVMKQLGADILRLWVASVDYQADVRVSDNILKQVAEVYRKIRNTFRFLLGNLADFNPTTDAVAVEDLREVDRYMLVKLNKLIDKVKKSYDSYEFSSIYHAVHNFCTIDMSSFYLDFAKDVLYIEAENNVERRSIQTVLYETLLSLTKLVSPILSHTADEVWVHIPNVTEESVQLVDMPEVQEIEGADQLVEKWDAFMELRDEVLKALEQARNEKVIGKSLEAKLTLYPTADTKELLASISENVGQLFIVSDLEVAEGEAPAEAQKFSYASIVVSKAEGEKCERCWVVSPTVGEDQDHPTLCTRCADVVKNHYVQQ

[3] = target: T2, PmIleRS1; test: biochemical; conditions: read-out: koff
[4] = target: T1, PmIleRS2; test: biochemical; remark: listed apart in the source
[5] = target: T2, PmIleRS1; test: biochemical; conditions: read-out: kon
[6] = substrate: Nc1ncnc2c1ncn2[C@@H]1O[C@H](COP(=O)(O)OP(=O)(O)OP(=O)(O)O)[C@@H](O)[C@H]1O; test: purified protein, by the assay type
[7] = substrate: CC[C@H](C)[C@H](N)C(=O)O; test: purified protein, by the assay type
[8] = substrate: CC[C@H](C)[C@H](N)C(=O)O; test: purified protein, by the assay type; conditions: 30.0 °C
[9] = substrate: Nc1ncnc2c1ncn2[C@@H]1O[C@H](COP(=O)(O)OP(=O)(O)OP(=O)(O)O)[C@@H](O)[C@H]1O; test: purified protein, by the assay type; conditions: 30.0 °C
[10] = substrate: CC[C@@H](C)[C@@H](N)C(=O)O; test: purified protein, by the assay type; conditions: 30.0 °C
[11] = substrate: CCC[C@H](N)C(=O)O; test: purified protein, by the assay type; conditions: 30.0 °C
[12] = substrate: CC(C)[C@H](N)C(=O)O; test: purified protein, by the assay type; conditions: 30.0 °C

Molecule: C/C(=C\C(=O)OCCCCCCCCC(=O)O)C[C@@H]1OC[C@H](C[C@@H]2O[C@H]2[C@@H](C)[C@H](C)O)[C@@H](O)[C@H]1O [mupirocin]
- Ki [1]: 1080 ± 60 nM
- Ki [2]: 0.285 ± 0.146 nM
- koff [3]: 0.00043 s⁻¹
- Ki [4]: 1040 ± 40 nM
- kon [5]: 1.51e+06 M⁻¹ s⁻¹

B1: PmIleRS2 (Priestia megaterium NBRC 15308 = ATCC 14581) (protein)
chain: T1 sequence (A0A0B6AVD3 1-1032)
- Km [6]: 76.4 ± 1.4 µM
- kcat [6]: 0.96 ± 0.03 s⁻¹
- kcat/Km [6]: 10000 M⁻¹ s⁻¹
- Km ([6]; 30.0 °C): (3.8 ± 0.2) × 10^3 uM
- kcat/Km ([6]; 30.0 °C): 20000 M⁻¹ s⁻¹
- Km [7]: 6.2 ± 0.8 µM
- kcat/Km [7]: 150000 M⁻¹ s⁻¹
- Km ([7]; 30.0 °C): 69.3 ± 5.5 µM
- kcat/Km ([7]; 30.0 °C): 940000 M⁻¹ s⁻¹
- Km [8]: 48.6 ± 1.9 µM
- kcat/Km [8]: 1.4e+06 M⁻¹ s⁻¹
- Km [9]: (1.6 ± 0.1) × 10^3 uM
- kcat/Km [9]: 40000 M⁻¹ s⁻¹
- Km [10]: (2.3 ± 0.1) × 10^3 uM
- kcat [10]: 1.54 ± 0.03 s⁻¹
- kcat/Km [10]: 670 M⁻¹ s⁻¹
- Km [11]: (7.97 ± 0.84) × 10^3 uM
- kcat [11]: 33 ± 1 s⁻¹
- kcat/Km [11]: 4100 M⁻¹ s⁻¹
- Km [12]: (5.4 ± 0.4) × 10^3 uM
- kcat [12]: 39 ± 1 s⁻¹
- kcat/Km [12]: 7000 M⁻¹ s⁻¹

— publication doi:10.1101/2022.02.09.479832v2 (biorxiv, 2022)
